From publication PMC5785501, “Crystal structure of lipid A disaccharide synthase LpxB from Escherichia coli” (Nature Communications, 2018) come the findings set out here.

Data set [1] concerns the molecule itself. Kind of data set: crystal structure; X-ray, one molecule in the asymmetric unit, dimer by crystal symmetry; LiCl, PEG 4000, 0.1 M Tris-HCl pH 8.6; apo and soaked with 10 mM UDP-GlcNAc.
Data set [2] deals with the molecule itself. As to the kind of experiment: AUC; LpxB6S at 1 mg/ml, 5,000-16,000 r.p.m. for 10 h each, absorbance at 280 nm; mass modelled.

B1: LpxB7S (LpxB6S with M207S) (enzyme, Escherichia coli, UniProt P10441 1-382, looked up)
chain: MTEQRPLTIALVAGETSGDILGAGLIRALKEHVPNARFVGVAGPRMQAEGCEAWYEMEELAVMGISESSGRSRRSSHIRADLTKRFGELKPDVFVGIDAPDFNITLEGNLKKQGIKTIHYVSPSVWAWRQKRVFKIGRATDLVLAFLPFEKAFYDKYNVPCRFIGHTMADAMPLDPDKNAARDVLGIPHDAHCLALLPGSRGAEVESLSADFLKTAQLLRQTYPDLEIVVPLVNAKRREQFERIKAEVAPDLSVHLLDGMGREAMVASDAALLASGTAALECMLAKCPMVVGYRMKPFTFWLAKRLVKTDYVSLPNLLAGRELVKELLQEECEPQKLAAALLPLLANGKTSHAMHDTFRELHQQIRCNADEQAAQAVLELAQ
notes: lipid A disaccharide synthase LpxB, Escherichia coli; Native LpxB7S, apo and soaked with UDP-GlcNAc (UDP seen); also called LpxB6SM207S; source: E. coli BL21 (DE3), purified (Ni-NTA, Ulp1 cleavage, Superdex 200); not shown: His tag, N-terminal, cleaved; SUMO, N-terminal, cleaved
Regarding B1, in data set [1], the binding result was “binds”.

B2: LpxB6S (E. coli lipid A disaccharide synthase LpxB with V66S, V68S, L69S, L72S, L75S, L76S) (enzyme, Escherichia coli, UniProt P10441 1-382, looked up)
chain: MTEQRPLTIALVAGETSGDILGAGLIRALKEHVPNARFVGVAGPRMQAEGCEAWYEMEELAVMGISESSGRSRRSSHIRADLTKRFGELKPDVFVGIDAPDFNITLEGNLKKQGIKTIHYVSPSVWAWRQKRVFKIGRATDLVLAFLPFEKAFYDKYNVPCRFIGHTMADAMPLDPDKNAARDVLGIPHDAHCLALLPGSRGAEVEMLSADFLKTAQLLRQTYPDLEIVVPLVNAKRREQFERIKAEVAPDLSVHLLDGMGREAMVASDAALLASGTAALECMLAKCPMVVGYRMKPFTFWLAKRLVKTDYVSLPNLLAGRELVKELLQEECEPQKLAAALLPLLANGKTSHAMHDTFRELHQQIRCNADEQAAQAVLELAQ
notes: lipid A disaccharide synthase LpxB, Escherichia coli; residues up to 382 named in the structure; the gene was cloned from strain BL21; also called soluble LpxB; solubilized LpxB; source: E. coli BL21 (DE3), purified (Ni-NTA, Ulp1 cleavage, Superdex 200); not shown: His tag, N-terminal, cleaved; SUMO, N-terminal, cleaved
Turning to B2, the stoichiometry N – broadly, a count of units in the complex or per binding partner – in data set [2] is 2.
